Target: Burkholderia cenocepacia cytosolic carboxypeptidase (BcCCP) (Burkholderia cenocepacia J2315)
Assay: SEC-MALS; Superdex 200 10/300, 50 mM Tris-HCl, 250 mM NaCl pH 7.5; Wyatt miniDAWN TREOS and Optilab T-rEX detectors

Burkholderia cenocepacia cytosolic carboxypeptidase (BcCCP) (enzyme)
stoichiometry N: 4

Reference: article PMC3940198
